Data reported in PMC5389708 (Nucleic Acids Research, 2017).

What was measured:
[1] = biological target: chimpanzee APOBEC3C (chimpanzee); test: cross-linking
[2] = biological target: chimpanzee APOBEC3C (chimpanzee); test: SEC
[3] = biological target: chimpanzee APOBEC3C S188I (chimpanzee); test: cross-linking
cross-linking = biological target: the molecule itself; test: cross-linking
SEC = biological target: the molecule itself; test: SEC

Row | Molecule | stoichiometry N (cross-linking) | other results
1 | chimpanzee APOBEC3C (enzyme) |  | stoichiometry N [1]: 2; stoichiometry N [2]: 2
2 | chimpanzee APOBEC3C S188I (enzyme) |  | stoichiometry N [3]: 2
3 | gorilla APOBEC3C (enzyme) MNPQIRNPMKAMYPGTFYFQFKNLWEANDRNETWLCFTVEGIKRRSVVSWKTGVFRNQVDSETHCHAERCFLSWFCDDILSPNTNYQVTWYTSWSPCPECAGEVAEFLARHSNVKLTIFTARLYYFQYPCYQVGLRSLSQEGVAVEIMDYEDFKYCWENFVYNDNEPFKPWKGLKTNFRLLKRRLRESLQ | 2 | 
4 | gorilla APOBEC3C K115N (enzyme) MNPQIRNPMKAMYPGTFYFQFKNLWEANDRNETWLCFTVEGIKRRSVVSWKTGVFRNQVDSETHCHAERCFLSWFCDDILSPNTNYQVTWYTSWSPCPECAGEVAEFLARHSNVNLTIFTARLYYFQYPCYQVGLRSLSQEGVAVEIMDYEDFKYCWENFVYNDNEPFKPWKGLKTNFRLLKRRLRESLQ | 2 | 
5 | human APOBEC3C S188I (enzyme) MNPQIRNPMKAMYPGTFYFQFKNLWEANDRNETWLCFTVEGIKRRSVVSWKTGVFRNQVDSETHCHAERCFLSWFCDDILSPNTKYQVTWYTSWSPCPDCAGEVAEFLARHSNVNLTIFTARLYYFQYPCYQEGLRSLSQEGVAVEIMDYEDFKYCWENFVYNDNEPFKPWKGLKTNFRLLKRRLREILQ | 2 | 
6 | gorilla APOBEC3C S188I (enzyme) MNPQIRNPMKAMYPGTFYFQFKNLWEANDRNETWLCFTVEGIKRRSVVSWKTGVFRNQVDSETHCHAERCFLSWFCDDILSPNTNYQVTWYTSWSPCPECAGEVAEFLARHSNVKLTIFTARLYYFQYPCYQVGLRSLSQEGVAVEIMDYEDFKYCWENFVYNDNEPFKPWKGLKTNFRLLKRRLREILQ | 2 | 
7 | human APOBEC3C S188I/N115K (enzyme) MNPQIRNPMKAMYPGTFYFQFKNLWEANDRNETWLCFTVEGIKRRSVVSWKTGVFRNQVDSETHCHAERCFLSWFCDDILSPNTKYQVTWYTSWSPCPDCAGEVAEFLARHSNVKLTIFTARLYYFQYPCYQEGLRSLSQEGVAVEIMDYEDFKYCWENFVYNDNEPFKPWKGLKTNFRLLKRRLREILQ | 2 | 
8 | human APOBEC3C N115K (enzyme) MNPQIRNPMKAMYPGTFYFQFKNLWEANDRNETWLCFTVEGIKRRSVVSWKTGVFRNQVDSETHCHAERCFLSWFCDDILSPNTKYQVTWYTSWSPCPDCAGEVAEFLARHSNVKLTIFTARLYYFQYPCYQEGLRSLSQEGVAVEIMDYEDFKYCWENFVYNDNEPFKPWKGLKTNFRLLKRRLRESLQ |  | stoichiometry N (SEC): 2
